{"source": "paper PMC7145567", "biological_target": "HMGA1a, non-phosphorylated (wt) (UniProt P17096 1-107)", "sequence (P17096 whole entry)": "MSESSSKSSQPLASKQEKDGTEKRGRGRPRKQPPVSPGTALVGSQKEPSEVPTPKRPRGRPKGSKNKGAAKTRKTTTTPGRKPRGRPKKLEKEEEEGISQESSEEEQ", "test": "ITC", "data": [{"binder": "PRD2 element of NFkB promoter (dsDNA) DNA 1: GGGAAATTCCTC DNA 2: GAGGAATTTCCC", "values": [{"measurement": "Kd", "value": "~100", "unit": "nM"}]}]}
